# Test: yeast display, Sf9 membrane polyspecificity reagent, FACS + sequencing; frameworks hold sequencing errors
# Procedure, shortened: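 Synthetic nanobody libraries on Saccharomyces cerevisiae BJ5465 were galactose-induced for 36–48 hours, stained 1 hour at 4 °C with 10% biotinylated, detergent-solubilized Sf9 membrane reagent and enriched on streptavidin microbeads. FACS then separated cells into low and high (top ~1%) gates by anti-HA (expression) and streptavidin (reagent binding) fluorescence. Genes were colony-PCR amplified, MiSeq 2 × 250 sequenced and CDR-length filtered. A clone's polyreactivity label is that of its gate of origin.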
row,Sequence,polyreactivity (PSR sort gate)
1,QVQLVDSWGGLVQAGGSLRLSCAASGSIFYRKAMGCYRQAPGKERELFAAITRSDVRTYYADSVKGRFTISRDNAKNTVYLQMNSLKPEDTAVYYCAALEYGSYQHFGEDYWGQGSQVTVSS,low polyreactivity
2,QVQLVEAGGGFVQAGGSLRLSCAASGSIIVPYAMGWYRQPPGKESELVAAISSRGGRTYYADSVKGRFTISRENAMNSVYLQMNSLKPEDSAVYDCNKTGGSHIPRLEYWGQGTQVTVSS,low polyreactivity
3,QVQLVEAGGGLGQAGGSLRLSCAASGRILTPYARGWYRQAPGKERELVAANTSGGRTHYAHSVKGRFTMSRDNAKNTVYLQMNSLTPEDTAVYYCAARVRTGWWVRDDYWGQGTQVTLSS,high polyreactivity
4,QVQLVEAGGGLVQAGGRLRLSCAASGSIFRRNAMGWYRQAPGTERELVASISSSGGSTYYADSVKGRFTLSRDNAMNTVYLQMNSLKPEDTAVYYCNAYRIRPGTPYGNGYYYWGQGTQVTGSS,high polyreactivity
5,QVQLVEAGGGLVQAGGSLRISCAASGITFLSNAMGWYRQAPGKEMELVAVITIGGSTYYADSVKGRFTISRDNAKNTVFLQLNSLKPEDTAVYYCAVELVAVPDRRFNYWGQGTQVTVSS,low polyreactivity
6,QVQLVEAGGGLVQAGGSLRLSCAASGGIFSTYTMRWYRQAPGKERELVAAITTGNSTYYADSVKVRFTISRDNAKNTVYLQMNSLKPEDSAVYYCAAFADSRDYYRRLIHDGYDYWGQGTQVTVSS,low polyreactivity
7,QVQLVEAGGGLVQAGGSLRLSCAASGITFGDNAMGWYIQAPGKDRELVAAITLSDVDTYADSVKGRFTISRDNSKNTVYLQMISLKPEDTAVYDCAADYDFFSLYLYDYWGQGTQVTVSS,low polyreactivity
8,QVQLVEAGGGLVQAGGSLRLSCAASGRIFRTYAMGWYRQAPGKESELVAAINISGDRTYYADSVKGRFTISRDHAKNTVYLQMNSLKPEDTAVYYCAAAGYRYWGAIYYWGQGTQVTVSS,high polyreactivity
9,QVQLVEAGGGLVQAGGSLRLSCAASGRTFKGYAMGWYRPAPGKERELVAAITKRGGSTYYADSVKGRFTISRDNAKNTVYLQMNSLKPEDTAVYYCNADKQGSRHGDDYWGQGTQVTVSS,high polyreactivity
10,QVQLVEAGGGLVQAGGSLRLSCAASGSIFAQNVRGWSRQAPGKERELVAAISYSGGTTYYADSVKGRFTISRDNAMNTVYLQMNSLKPEDTAVYDCAAEFGVYEYDYWGQGTQVTVSS,low polyreactivity
11,QVQLVEAGGGLVQAGGSLRLSCAASGSTFAGYAMGWYRQAPGKERELVATITYSGGSTYYADSVKGRFTISRDNAKNTVYLQMNSLKPEDTAVYYCAKKASYWWGYEYWGQGTQVTVSS,low polyreactivity
12,QVQLVEAGGGLVQAGGSLRLSCAASVSTLFFNAMGWYRQGTGKERELVAGITDGGNTNYADSVKGRFTISRDNAKNTVYIQMNSLKPEDTAVYYCATDGVNPFYAYDYWGQGTQVTVSS,low polyreactivity
13,QVQLVEAGGGLVQAGGSLRLSCAPSGFTFGSYARRCYRQAPGKERELVAAIRLSGGSTTYADSVKGRFTITRDNEKKTVYLQMNSLKAEDTAVYYCAARVHVGYYWTFYYWGQGTQVTVSS,high polyreactivity
14,QVQLVEAGGRLVQAAGSLRLSLAASAFNTTAMGWYRQAPGKDRELVAAITSDGDSTYYADSVKGRFTISRDNAQNTDYFQKNCVKPVDTAVYYCAADAVPTSVVYWGFYGMYWGQGTQVTVSS,low polyreactivity
15,QVQLVEAGRGLVQAGGSLRLSCAASGRTIDHYAMGWYRQAPGKERELVAAMSPTGGSTYYADSVKGRFTISRDNAKNSVYLQMNSLKPEDTAVYYCNARYYFYSATVDRYYHFYYWGQGTQVTVSS,high polyreactivity
16,QVQLVEKGGCLVQAGGSLSLSCAAYGRTFILNSMGCYRQAPWKEMELVAAISWSGGSTYYADSVKGRFTISRDNAKNTVYLQMNSLKPEDTAVYYCAAETYAYLFHTYDYWGQGTQVTVSS,low polyreactivity

row,Sequence,polyreactivity (PSR sort gate)
1,QVQLVEKGGGLVQAGGSLRLSCAASGRTFQYYAMGWYRQAPGNERELVAAINQGGGRTYYADSVKGRFTISRDNAKNTVYLQMNSLKPEDTAVYYCAADGLSKFDYWGQGTQVTVSS,low polyreactivity
2,QVQLVEPGGGLVQAGGSLRLSCAASGSTFTLYAMGWYRQAPGKERELVATLTGSAGSTNYADSVKGRFTISRDNAKNTVYLQMNSLKPEDTAVYYCAKRVQQSTWYGYGIGYEYWGQGTQVTVSS,high polyreactivity
3,QVQLVEPGGGLVQAGGSLRLSCAASGSTFVEYDMGWYRQAPGKERELVAGINSGDRTNYADSVKGRFTISRDNEKNTVYLQMNSLKPEDTAVYYCAVDYRSYAYDYWGQGTQVSVSS,low polyreactivity
4,QVQLVESAAGLVQAGGSHRLSCAASGFTFDHYAMGWSRQEPGKESELVAAISKRGGTTYYADSVKGRFTISRDNAKNTVYLQTKSLKPEDTAVYYCNADVNNWEDDYYYWGQGTQVTVSS,high polyreactivity
5,QVQLVESAAGLVQAGGSLRLRCAASGRIFSDYAMGWYRQAPGKERELVATITSGDSTNYADSVKGRFTISGDNAKNTDYLQMNSLKPEDTAVYYCNADRFADYDYWGQGTQLTVSS,low polyreactivity
6,QVQLVESAAGLVQAGGSLRLSGAASGRIFRYNAMGGYRQAPGNERELVAAISSGGSTNYADSVKGRFTTSRDNAKNTVYLQMNSLKPEDTAVYYCNADSVHRYPGWGYDYWGLGTQVTVSS,low polyreactivity
7,QVQLVESAGGLDQAGGSLRLSCAASGSIFYIYAMGWYRQAPGKERELVATISGSGGSTHYADSVKGRFTISRDNAKNSVYLQKNSLKPEDTAVYYCAADVLPYGYYWGQGPQVTVSS,low polyreactivity
8,QVQLVESAGGLVQAAGSLRLSCAASGSIFSTNAMGWYRQAPGKERELVAAITYRGRTFYADSVKGRFTISRDNAKNTVYLQMNSLKPEDTAVYYCNAVGISWFGYLKAYVYWGKGTQVTVSS,high polyreactivity
9,QVQLVESAGGLVQAGASLRLSCDASGRIFPSNAMGWSRQAPGKERELVAAITSSGGSTYYADSVKGRFTISRDYAKNTVYLQMNSLKPEHTAVYYCPARFYSGPGGYTIYYWGQGTQVTVSS,high polyreactivity
10,QVQLVESAGGLVQAGASRRLSCAASGRTVSLYTMGWSRQSPGKESELVASITSSGSTSYADSVKGRFTISRDNAKNTVYLQMNSLKPEDTAVYYCNAAVSYPKYPYVSPGVPSYDYWGQGTQVTVSS,low polyreactivity
11,QVQLVESAGGLVQAGGILRLSCAASGSTFDSYGMGWYRQAPGKERELVASISVSGGGTYYADSVKGRFTISRDNAKNTVYLQMNSLKPEDTAVYYCNARYGNESQGWEDYWGQGTQVTVSS,low polyreactivity
12,QVQLVESAGGLVQAGGRLRLSCAASGFIFTTNAMGWYRQAPGKEREFVAAITRSGGSTYADSVKGRFTISRDNAKNTVYLQMNSLKPEDTAVYYFNADWAGVDTSYEYDYWGQGTQVTVSS,low polyreactivity
13,QVQLVESAGGLVQAGGRLSLICAASGYTFYYHAMGWYRQAPGKERELVASIRSRGRSTYYADSVKGRFTISRDNAKNTVYLQMNSLKPEDTAVYYCAALPNKPAVYAYDYWGQGTQVTVSS,low polyreactivity
14,QVQLVESAGGLVQAGGSLLLSCAASGSTFGTYAMGWYRQAPGKERELVAAISTGGSTYYADSVKGRFTISRDNAKNTVYLQMNSLKPEDTAVYYCAALAEYVRRASDYWGQGTQVTVSS,low polyreactivity
15,QVQLVESAGGLVQAGGSLRITCAASASTYSWYTMGWYREAPGKERELVASINYSGTNTYYADSVKGRFTISRDNAKNTVYLQMNSLNPEDTAVYYCAARPRTKLTAYNYCGQGTQVTVSS,high polyreactivity
16,QVQLVESAGGLVQAGGSLRLICAASGLIFYRNTMGWYRQAPGKERELVAAISVSGGSTNYADSVKGRFTISRDNAKNTVYLQMNILKPEDTAVYFCATRVNYGYYYWGQGTQVTVSS,high polyreactivity
